Target: T1, CLL subset 2 typical BCR (HC/LC typical for the CLL subset 2) expressed on the surface of TKO cells
T1 construct: also called CLL-Subset2 BCR; BCR of Interest
Assay: FACS on TKO cells expressing the CLL receptor
Source text: Monoclonal antibodies were produced using the standard procedure in mice and the subsequent generation of hybridoma cells. The screening for positive clones was not performed by ELISA as usual. Since the target structure is a membrane-bound receptor, it is of central importance to validate the binding of the potential antibodies in a cellular system, i.e. while largely preserving the cell physiological states native to this cell type. First, groups of pooled supernatants were examined for binding events using FACS analysis. For this purpose different CLL-Subset 2 BCR variants were expressed on the surface of a cell line (TKO), which cannot express BCR itself. […] Subsequently, the supernatants of the individual hybridoma clones were examined in more detail with regard to their binding in order to identify highly specific clones with a high affinity.
For the screening procedure, different vectors were used in the previous transformation for the following heavy chain (HC) and light chain (LC) combinations of the corresponding CLL-BCRs, these combinations being used on the surface of the BCR reconstitution system: [0074] Control (transformation vector without BCR) (see FIG. 1 A) [0075] Vector with HC/LC typical for the CLL subset 2 (see FIG. 1 B) [0076] Vector with a non-CLL subset 2 HC/a LC typical for the CLL subset 2 (without target motif; epitope) (see FIG. 1 C) [0077] […]

T1 sequence (heavy, as listed by the source, chain 1 of 2): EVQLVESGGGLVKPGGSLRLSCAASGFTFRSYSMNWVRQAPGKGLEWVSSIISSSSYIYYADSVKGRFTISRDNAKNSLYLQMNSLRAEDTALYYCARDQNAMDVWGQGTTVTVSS
T1 sequence (light, as listed by the source, chain 2 of 2): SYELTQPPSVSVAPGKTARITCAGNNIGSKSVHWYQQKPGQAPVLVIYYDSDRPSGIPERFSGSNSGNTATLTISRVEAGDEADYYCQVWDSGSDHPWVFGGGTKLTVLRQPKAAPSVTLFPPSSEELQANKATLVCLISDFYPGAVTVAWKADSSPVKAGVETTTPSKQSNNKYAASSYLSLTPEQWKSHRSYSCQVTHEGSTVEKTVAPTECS

binding result: binds
B1: AVA-mAb01 (antibody, V domains shown)
VH: QVQLQQSGPGLVQPSQSLSITCTVSGFSLTSYGIHWVRQSPGKGLEWLGVIWRGGGTDSNAAFMSRLSITKDNSKSQVFFKMNSLQADDTAIYYCARSRYDEEESMNYWGQGTSVTVSS
VL: QIVLTQSPASLSASVGETVTITCRASGNIHSYLAWYQQKQGKSPQLLVYNAKTLADGVPSRFSGSGSGTQYSLKINSLQPEDFGSYYCQHFWNTPPTFGAGTKLELK
notes: Murine monoclonal antibody from a hybridoma, tested as hybridoma supernatant and detected with a fluorescence-labeled anti-mouse-IgG antibody; the constant regions are not; also called specific monoclonal antibody against Subset-2; the selected antibody

— patent US20200199225A1 (AVA LIFESCIENCE, published 2020)
